Laboratory results reported in patent US12281340B2, “Method of producing N-acyl-amino group-containing compound” (AJINOMOTO CO., INC., priority 2018, dated 2025).

Assay: Synthesis of N-capryloylamino acid using washed microbial cell suspension or microbial cell suspension expressing acylamino acid synthetase
Assay type: cell-based, E coli BL21(DE3)
Conditions: UV 210 nm
Method: BL21(DE3)/pET-28a-AtGH3-6, BL21(DE3)/pET-28a-OsGH3-8, BL21(DE3)/pET-28a-AtGH3-5, and BL21(DE3)/pET-28a were inoculated to 100 mL of LB medium containing 25 mg/L of kanamycin in a Sakaguchi flask, respectively and cultured with shaking at 37° C. When OD610 reached 0.6, 1 mM IPTG was added, and culturing with shaking was continued at 15° C. for 24 hours.
BL21(DE3)/pET-28a-CfHP was inoculated to 100 mL of LB medium containing 25 mg/L of kanamycin in a Sakaguchi flask, and cultured with shaking at 37° C. When OD610 reached 0.2, 1 mM IPTG was added, and culturing with shaking was continued at 15° C. for 24 hours.
After completion of the culture, microbial cells were collected from 5 mL of the resulting culture medium by centrifugation and washed with 20 mM Tris-HCl (pH 7.6) followed by being suspended in 1 mL of 20 mM Tris-HCl (pH 7.6) to use as a washed microbial cell suspension.
After completion of the culture, 15 mL of the resulting culture medium was concentrated to 3 mL by centrifugation to use as a microbial cell suspension.
0.3 mL of a reaction solution containing 33.3 mM Tris-HCl, 3.3 mM amino acid, 3.3 mM sodium caprylate, 6.7 mM or 0 mM ATP, 6.7 mM MgCl2, 0.7 mM DTT, 30 μg of the microbial cell suspension (cell free extract solution, washed microbial suspension, microbial suspension), pH 8.0 was incubated at 25° C. for 24 hours. As the amino acid, L-Asp was used in AtGH3-6, OsGH3-8, AtGH3-5, and Gly or L-Ala was used in CfHP. After completion of the reaction, 0.8 mL of the reaction stop solution (1% (v/v) phosphoric acid, 75% (v/v) methanol) was added, and the mixture was filtrated through the filter followed by being subjected to the UPLC-MS analysis to detect a signal of a molecular weight corresponding to the N-capryloylamino acid. The condition for the UPLC-MS analysis is as described in Example 2. As a result of the UPLC-MS analysis, the signal of the molecular weight corresponding to the appropriate N-capryloylamino acid was confirmed in the reaction solution using the microbial cell suspension and the like shown in Table 8 below.
As a result of quantifying the produced N-acylamino acid by detection at UV 210 nm, when Gly was used as the substrate in CfHP, 2.8 mM, 2.2 mM and 2.6 mM N-capryloylamino acids were detected in the washed microbial cell suspension, the microbial cell suspension (in the presence of ATP) and the microbial cell suspension (in the absence of ATP), respectively. When L-Ala was used as the substrate in CfHP, 2.4 mM, 0.9 mM and 1.0 mM N-capryloylamino acids were detected in the washed microbial cell suspension, the microbial cell suspension (in the presence of ATP) and the microbial cell suspension (in the absence of ATP), respectively.

B1: CfHP: hypothetical protein from Cystobacter fuscus (GH3 protein), His-tagged (protein, listed as Cystobacter fuscus)
chain: MQAAGRRDKQRFIEQTRHVARVNVDTLRAILQHNRDTDFGRRHGFASLRTVEDFQRALPVSTYEPFRPYMERIARGEQNVLTADRVEYLGITSGTTGQRKLLPVSRPHLENMRRTMMIGRAVVTEKVPAARRPSRGMILMNAVLRERSEGGLLTGALTAISTHSMGRAASFAFTSPPEAFRLRKHADALYLHLLFGLRERELGTLMAPFASGLLDMVHLLERRGADLVDDIARGVLRPELDLEPEQRRLLQSRLLPDPERAREVSQALEQGPHGLLRRLWPRLAYVSSITGASFSLYTRQLTPYLEGVPLSAASYVSTEGILGVPLELEQAVYCLMVGMAFFEFIPERELDAESPTTLLPEQLVEGEAYEVVLTTQAGLYRYRLGDVVRIVGRYHEAPLMEFLYRRGALLNLMGEKTSEHAARLALEQALATEGLLPADYSVVEETETLPGRYALFVELQEGARPQGAPEQLSRALEEALCRTNPFYEVIRRSERLGAAQLHRVEPGTFQALRDVLVQRGASPTQVKVPRVVRDAELQGLLRQRRVTG
modifications: His-tag
notes: hypothetical protein from Cystobacter fuscus (GH3 protein), His-tagged
N-capryloylamino acid detected (Gly as substrate, microbial cell suspension (in the absence of ATP)): 2.6 mM | N-capryloylamino acid detected (Gly as substrate, microbial cell suspension (in the presence of ATP)): 2.2 mM | N-capryloylamino acid detected (Gly as substrate, washed microbial cell suspension): 2.8 mM | N-capryloylamino acid detected (L-Ala as substrate, microbial cell suspension (in the absence of ATP)): 1.0 mM | N-capryloylamino acid detected (L-Ala as substrate, microbial cell suspension (in the presence of ATP)): 0.9 mM | N-capryloylamino acid detected (L-Ala as substrate, washed microbial cell suspension): 2.4 mM
